This is an account of results in patent publication US20250340631A1 (HARBOUR BIOMED SHANGHAI, published 2025).

The target in test [1] is T1, human CLDN18.2 (human).
T1 construct: the HEK293 line was made with a GenScript plasmid; also called hCLDN18.2
As to the kind of experiment: FACS on NUGC4_D8 cells.
Method: (§1) Antibodies were assayed for binding affinity by FACS. Test cells include HEK293/hCLDN18.2, HEK293/hCLDN18.1, NUGC4_D8 and Jurkat cells. […] The cell density was adjusted to 10⁶ cells/mL, and 50 μL of the cell suspension was added to each well of a 96-well plate. Antibodies were diluted to different concentrations with FACS buffer, and 50 μL of the antibody dilution was added to each well of the 96-well plate. After 2 h of incubation at 4° C., the plate was washed twice with FACS buffer. […] After 1 h of incubation at 4° C., the plate was washed twice with FACS buffer. The cells were resuspended in fixative solution, and then the fluorescence of the cells was monitored using an FACS instrument (ACEA NovoCyte).

Test [2] has as its target T1, human CLDN18.2. Kind of test: cell-based or functional assay.
In test [3] the target is CLDN18.2 of SNU620 cells (methionine to leucine at amino acid 149) (human, UniProt P56856-2 1-261). As to the kind of experiment: cell-based or functional assay.
Sequence of CLDN18.2 of SNU620 cells (methionine to leucine at amino acid 149) (P56856 other isoform, or with tags, fused parts or gaps limits assumed): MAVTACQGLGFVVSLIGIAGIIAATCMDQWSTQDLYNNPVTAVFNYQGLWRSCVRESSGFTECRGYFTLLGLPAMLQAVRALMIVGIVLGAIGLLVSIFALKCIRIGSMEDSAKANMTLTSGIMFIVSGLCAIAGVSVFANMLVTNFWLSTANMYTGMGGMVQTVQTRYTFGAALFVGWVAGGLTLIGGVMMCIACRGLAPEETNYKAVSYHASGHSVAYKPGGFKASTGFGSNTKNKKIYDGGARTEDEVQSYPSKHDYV
Test [4] has as its target T1, human CLDN18.2. Kind of test: FACS on HEK293/hCLDN18.2 cells.
In test [5] the target is T2, human CD3 on Jurkat cells (human, UniProt P07766 23-207).
T2 construct: whole, on cells; on cells it stands in the whole CD3/TCR complex; also called CD3-expressing cells
T2 sequence (P07766 23-207): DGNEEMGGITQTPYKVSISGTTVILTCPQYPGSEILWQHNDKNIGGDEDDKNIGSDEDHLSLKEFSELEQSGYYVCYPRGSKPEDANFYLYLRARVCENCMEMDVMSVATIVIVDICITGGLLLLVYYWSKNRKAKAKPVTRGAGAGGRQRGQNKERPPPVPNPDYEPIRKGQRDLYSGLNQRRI
As to the kind of experiment: FACS on Jurkat cells (CD3).
Method: as §1

Test [6] has as its target Human CD16a(F) (human, UniProt P08637 17-208). Kind of test: BLI (Octet), antibody on FAB2G sensor. For orientation: Biolayer interferometry detects binding as a change in optical thickness at a sensor tip.
Method: (§2) The binding kinetics between proteins and antibodies was analyzed by the Biolayer Interferometry (BLI) technique using an Octet Red 96e (Fortebio) system. The rotation speed was set at 1000 rpm for the system. […] After equilibrated in the buffer for 120 s, the FAB2G sensor was allowed to bind to 2-fold serially diluted human Fc receptor protein. Finally, the FAB2G sensor was immersed in a 10 mM glycine-hydrochloric acid solution at pH 1.5 for regeneration to elute the proteins bound to the sensor. The affinity assays of antibodies for FcRn were performed under the conditions of both pH 6.0 buffer and pH 7.4 buffer. […] For the interactions of fast binding and fast dissociation, the “steady state” method was selected to fit the data to obtain KD(M) values.
Test [7] has as its target T3, Human CD32a(H) (human, UniProt P12318 36-218, limits assumed).
T3 sequence (looked up): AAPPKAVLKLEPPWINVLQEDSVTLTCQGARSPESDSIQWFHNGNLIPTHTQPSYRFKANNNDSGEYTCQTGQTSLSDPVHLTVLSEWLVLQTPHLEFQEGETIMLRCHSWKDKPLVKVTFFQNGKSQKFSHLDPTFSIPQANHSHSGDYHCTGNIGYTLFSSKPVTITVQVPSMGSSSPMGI
Kind of test: BLI (Octet), antibody on FAB2G sensor.
Method: as §2

In test [8] the target is T4, Human CD32b (human, UniProt P31994 46-217, limits assumed).
T4 sequence (looked up): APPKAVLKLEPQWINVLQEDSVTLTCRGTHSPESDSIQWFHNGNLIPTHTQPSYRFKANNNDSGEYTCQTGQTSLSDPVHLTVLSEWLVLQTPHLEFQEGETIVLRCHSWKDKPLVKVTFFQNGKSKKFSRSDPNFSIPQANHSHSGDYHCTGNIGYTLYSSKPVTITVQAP
As to the kind of experiment: BLI (Octet), antibody on FAB2G sensor.
Method: as §2

The target in test [9] is T5, Human CD64 (human, UniProt P12314 16-288, limits assumed).
T5 construct: bought recombinant protein
T5 sequence (P12314 16-288 limits assumed): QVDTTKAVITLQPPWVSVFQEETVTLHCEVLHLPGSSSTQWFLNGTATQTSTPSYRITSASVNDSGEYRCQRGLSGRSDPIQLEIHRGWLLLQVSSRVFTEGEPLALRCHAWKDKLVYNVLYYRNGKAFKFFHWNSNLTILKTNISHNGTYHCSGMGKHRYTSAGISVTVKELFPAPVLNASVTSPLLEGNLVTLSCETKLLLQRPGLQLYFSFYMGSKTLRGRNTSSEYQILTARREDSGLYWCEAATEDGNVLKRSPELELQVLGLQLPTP
As to the kind of experiment: BLI (Octet), antibody on FAB2G sensor, 1:1 global fit.
Method: as §2

The target in test [10] is T6, Human CD16a(V) (human, UniProt P08637 17-208). Kind of test: BLI (Octet), antibody on FAB2G sensor, steady state fit.
T6 sequence (P08637 17-208 F176V limits assumed): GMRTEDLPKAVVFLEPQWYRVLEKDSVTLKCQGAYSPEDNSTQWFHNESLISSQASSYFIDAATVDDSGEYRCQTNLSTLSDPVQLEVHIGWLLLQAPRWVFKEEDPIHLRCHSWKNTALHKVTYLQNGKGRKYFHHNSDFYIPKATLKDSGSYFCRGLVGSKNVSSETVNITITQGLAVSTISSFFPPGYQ
Method: as §2
The target of test [11] is Human FcRn (human, UniProt P55899 24-297; P61769 21-119). As to the kind of experiment: BLI (Octet), antibody on FAB2G sensor, pH 6.0, 1:1 global fit; pH 6.0; 400-25 nM.
Sequence of Human FcRn (P55899 24-297 limits assumed, chain 1 of 2): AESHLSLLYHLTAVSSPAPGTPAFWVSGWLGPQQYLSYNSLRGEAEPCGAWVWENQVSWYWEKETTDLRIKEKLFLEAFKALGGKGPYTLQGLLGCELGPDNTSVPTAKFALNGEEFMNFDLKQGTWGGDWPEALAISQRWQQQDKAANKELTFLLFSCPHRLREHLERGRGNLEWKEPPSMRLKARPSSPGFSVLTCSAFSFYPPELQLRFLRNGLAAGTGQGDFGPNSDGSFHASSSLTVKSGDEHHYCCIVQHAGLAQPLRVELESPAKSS
Sequence of Human FcRn (P61769 21-119 limits assumed, chain 2 of 2): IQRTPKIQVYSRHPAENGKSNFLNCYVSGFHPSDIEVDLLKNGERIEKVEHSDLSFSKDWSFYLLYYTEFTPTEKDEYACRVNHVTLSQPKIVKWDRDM
Method: as §2
In test [12] the target is T1, human CLDN18.2. Kind of test: competition FACS on HEK293/hCLDN18.2 cells; competitor 10 nM biotinylated PR000400.
Method: (§3) This example is to study the binding of anti-human CLDN18.2 bispecific antibodies to the epitope region of a human CLDN18.2 antigen. Competitive binding experiments were performed at the cellular level using human CLDN18.2-overexpressing HEK293/hCLDN18.2 cells. […] The mixture was well mixed and incubated at 4° C. for 30 min. 25 μL of the corresponding serially diluted non-biotinylated anti-human CLDN18.2 antibody was added. The mixture was well mixed and incubated at 4° C. for 1 h. The cells in each well were washed twice with 200 μL of pre-cooled FACS buffer (2% BSA in DPBS) and centrifuged at 500 g at 4° C. for 5 min, and then the supernatant was discarded. A fluorescent secondary antibody (Jackson ImmunoResearch, 016-540-084, 1:500) was added. The mixture was incubated at 4° C. in the absence of light for 1 h. The cells in each well were washed twice with 200 μL of pre-cooled FACS buffer (2% BSA in DPBS) and centrifuged at 500 g at 4° C. for 5 min, and then the supernatant was discarded. Finally, the cells in each well were resuspended in 200 μL of pre-cooled FACS buffer, and the fluorescence signal values were read using a ACEA_NovoCyte.
Test [13] deals with T1, human CLDN18.2. As to the kind of experiment: competition FACS on HEK293/hCLDN18.2 cells; competitor 200 nM biotinylated PR004549.
Method: as §3
In test [14] the target is T2, human CD3 on Jurkat cells. Kind of test: FACS on Jurkat cells.
Method: as §1
The target of test [15] is T5, Human CD64. Kind of test: BLI (Octet), antibody on FAB2G sensor.
Method: as §2
Test [16] has as its target T6, Human CD16a(V). Kind of test: BLI (Octet), antibody on FAB2G sensor.
Method: as §2
For test [17], the target named is T7, Human CD3E (Acro, CDE-H5223) (human, UniProt P07766 23-126, biotinylated (mixed with biotin 1:3)).
T7 construct: also called Human CD3Ec
T7 sequence (P07766 23-126 limits assumed): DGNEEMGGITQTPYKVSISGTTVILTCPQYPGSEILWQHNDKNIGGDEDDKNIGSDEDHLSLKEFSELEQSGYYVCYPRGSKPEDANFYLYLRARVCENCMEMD
As to the kind of experiment: BLI (Octet), biotinylated CD3 on SA sensor, 1:1 global fit.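 Further: antibodies applied as analyte in 2-fold serial dilutions, with a 180 s association phase followed by a 300 s dissociation phase.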
Method: (§4) The binding kinetics between proteins and antibodies was analyzed by the Biolayer Interferometry (BLI) technique using an Octet Red 96e (Fortebio) system. Human CD3E (Acro, CDE-H5223), cynomolgus CD3E (Acro, CDE-C5226) and murine CD3E (Acro, CDE-M5256) were mixed with biotin (Thermo Scientific, A39257) in a molar ratio of 1:3. The mixture was incubated at 4° C. overnight, and then excess biotin was removed to obtain biotinylated CD3E. The rotation speed was set at 1000 rpm for the system. […] After being equilibrated in the buffer for 120 s, the SA sensor with captured CD3 was allowed to bind to 2-fold serially diluted antibodies. […] Finally, the SA sensor was immersed in a 10 mM glycine-hydrochloric acid solution at pH 1.5 for regeneration to elute the antibodies bound to the sensor. […] For the interactions of fast binding and fast dissociation, the “steady state” method was selected to fit the data to obtain KD(M) values.

Test [18] has as its target T8, Cynomolgus CD3E (Acro, CDE-C5226) (cynomolgus, UniProt Q95LI5 22-117, biotinylated (mixed with biotin 1:3)).
T8 sequence (looked up): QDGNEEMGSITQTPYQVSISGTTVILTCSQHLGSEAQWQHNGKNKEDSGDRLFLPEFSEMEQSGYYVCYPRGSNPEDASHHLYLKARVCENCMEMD
The test is described as above.
Method: as §4

Where a chain is given by its changes, count along the chain named.

Sequence of Human CD16a(F) (P08637 17-208 limits assumed): as the sequence (P08637 17-208 F176V limits assumed) above, with V160F counted along it

B1: PR005397 (bispecific antibody, human IgG1, lambda, L234A L235A)
chain: EVQLVESGGGLVQPGGSLRLSCAASGFTFSSYWMHWVRQVPGKGLVWVSRISSTGSRTIYADSVKGRFTISRDNAKNTLYLQMNSLRAEDTAVYYCARGEDHDILTGYPIRGQGTTVTVSSGGGGSGGGGSGGGGSEVQLVESGGGLVQPGGSLRLSCAASGFTFSSYWMHWVRQVPGKGLVWVSRISSTGSRTIYADSVKGRFTISRDNAKNTLYLQMNSLRAEDTAVYYCARGEDHDILTGYPIRGQGTTVTVSSASEPKSSDKTHTCPPCPAPEAAGGPSVFLFPPKPKDTLMISRTPEVTCVVVDVSHEDPEVKFNWYVDGVEVHNAKTKPREEQYNSTYRVVSVLTVLHQDWLNGKEYKCKVSNKALPAPIEKTISKAKGQPREPQVCTLPPSREEMTKNQVSLSCAVKGFYPSDIAVEWESNGQPENNYKTTPPVLDSDGSFFLVSKLTVDKSRWQQGNVFSCSVMHEALHNHYTQKSLSLSPGK
heavy: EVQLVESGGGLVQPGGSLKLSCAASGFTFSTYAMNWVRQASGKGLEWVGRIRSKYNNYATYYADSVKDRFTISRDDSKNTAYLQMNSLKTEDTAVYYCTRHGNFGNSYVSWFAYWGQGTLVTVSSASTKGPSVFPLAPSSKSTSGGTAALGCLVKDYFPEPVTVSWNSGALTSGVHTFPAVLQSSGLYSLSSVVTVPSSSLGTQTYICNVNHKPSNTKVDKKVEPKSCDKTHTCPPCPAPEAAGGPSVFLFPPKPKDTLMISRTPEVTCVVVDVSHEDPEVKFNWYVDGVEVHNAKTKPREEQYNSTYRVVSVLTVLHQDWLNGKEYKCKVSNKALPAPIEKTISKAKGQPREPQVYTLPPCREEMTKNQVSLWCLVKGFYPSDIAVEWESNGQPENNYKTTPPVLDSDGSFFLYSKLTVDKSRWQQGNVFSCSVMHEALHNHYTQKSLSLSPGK
light: QAVVTQEPSLTVSPGGTVTLTCRSSTGAVTTSNYANWVQQKPGQAPRGLIGGTNKRAPWTPARFSGSLLGDKAALTLLGAQPEDEAEYFCALWYSNLWVFGGGTKLTVLGQPKAAPSVTLFPPSSEELQANKATLVCLISDFYPGAVTVAWKADSSPVKAGVETTTPSKQSNNKYAASSYLSLTPEQWKSHRSYSCQVTHEGSTVEKTVAPTECS
notes: structure 1; CD3 Fab from PR003886, CLDN18.2 VH from PR007246; LALA
The term EC50 denotes the concentration needed to bring the measured effect to its halfway point. The Kd is the constant that tells how readily two partners part at equilibrium. For orientation: koff means the rate constant with which the complex falls apart. Higher therefore signals fast dissociation. A word on the kon: it is the rate constant with which the complex forms. What is called IC50 is the concentration at which inhibition is half-maximal. As to B1, the EC50 in test [1] is 27.5 nM; in test [4], 12.8 nM. Also, the “TDCC, Titer EC50 (pM), NUGC4_D8” value in [2] is 10 pM. Also, the “TDCC, Titer EC50 (pM), SNU620” value in test [3] came to 31.6 pM. For the same molecule, the binding result is on record as “binds” in [5], “no binding (tested: 10000-625 nM)” in [6], “no binding (tested: 10000-625 nM)” in test [7] and “no binding (tested: 10000-625 nM)” in [8]. Also, the Kd was found to be 50.6 nM in test [9], 1800 nM in test [10] and 182 nM in test [11]. Moreover, the off-rate (koff) in test [9] is 0.0438 s⁻¹; in [11] it was 0.0586 s⁻¹. Further, the on-rate (kon) in [9] was found to be 866000 M⁻¹ s⁻¹; in [11] it was 322000 M⁻¹ s⁻¹. For the same molecule, the figures for the IC50 in [12] and in [13] were 81.8 nM and 67.5 nM, respectively. Also, the “Maximum inhibition rate (%)” value is 98.4% in [12] and 48% in [13].

B2: PR005411 (bispecific antibody, human IgG1, lambda, L234A L235A)
chain: B1 chain with T54D, G55A, T190D, G191A
heavy: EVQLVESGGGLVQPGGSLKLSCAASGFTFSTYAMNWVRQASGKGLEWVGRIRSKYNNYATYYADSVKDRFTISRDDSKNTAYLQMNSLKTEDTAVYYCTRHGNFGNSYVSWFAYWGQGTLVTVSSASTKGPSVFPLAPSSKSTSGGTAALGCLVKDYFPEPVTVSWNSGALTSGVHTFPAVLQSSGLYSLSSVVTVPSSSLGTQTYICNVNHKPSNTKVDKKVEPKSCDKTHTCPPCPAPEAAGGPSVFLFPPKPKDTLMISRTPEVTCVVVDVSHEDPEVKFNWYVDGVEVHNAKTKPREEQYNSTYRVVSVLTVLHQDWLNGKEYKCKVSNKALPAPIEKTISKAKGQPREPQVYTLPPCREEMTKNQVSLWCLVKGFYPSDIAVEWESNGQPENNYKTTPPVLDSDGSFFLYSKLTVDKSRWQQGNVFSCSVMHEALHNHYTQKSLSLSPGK
light: B1 light
notes: structure 1; CD3 Fab from PR003886, CLDN18.2 VH from PR007245; LALA
Turning to B2, the half-maximal effective concentration (EC50) in test [14] turned out to be 85.9 nM; in test [1], 20.5 nM; in [4] it was 16 nM. In addition, the “TDCC, Titer EC50 (pM), NUGC4_D8” value in [2] came to 11 pM. Also, the “TDCC, Titer EC50 (pM), SNU620” value in [3] was determined as 38.5 pM. Moreover, the binding result in [6], in [7] and in test [8] was “no binding (tested: 10000-625 nM)” throughout. Also, the results for the Kd in test [9], in test [10] and in [11] were 47.1 nM, 2300 nM and 215 nM, respectively. The results for the koff in test [9] and in test [11] were 0.0417 s⁻¹ and 0.0644 s⁻¹, respectively. Besides, the on-rate constant (kon) in test [9] was determined as 885000 M⁻¹ s⁻¹; in test [11] it was 300000 M⁻¹ s⁻¹. In addition, the IC50 in test [12] was 122 nM; in test [13], 74.4 nM. Moreover, the results for the “Maximum inhibition rate (%)” value in [12] and in test [13] were 96.2% and 48%, respectively.

B3: PR006023 (bispecific antibody, human IgG1, lambda, L234A L235A)
chain: B1 chain
heavy: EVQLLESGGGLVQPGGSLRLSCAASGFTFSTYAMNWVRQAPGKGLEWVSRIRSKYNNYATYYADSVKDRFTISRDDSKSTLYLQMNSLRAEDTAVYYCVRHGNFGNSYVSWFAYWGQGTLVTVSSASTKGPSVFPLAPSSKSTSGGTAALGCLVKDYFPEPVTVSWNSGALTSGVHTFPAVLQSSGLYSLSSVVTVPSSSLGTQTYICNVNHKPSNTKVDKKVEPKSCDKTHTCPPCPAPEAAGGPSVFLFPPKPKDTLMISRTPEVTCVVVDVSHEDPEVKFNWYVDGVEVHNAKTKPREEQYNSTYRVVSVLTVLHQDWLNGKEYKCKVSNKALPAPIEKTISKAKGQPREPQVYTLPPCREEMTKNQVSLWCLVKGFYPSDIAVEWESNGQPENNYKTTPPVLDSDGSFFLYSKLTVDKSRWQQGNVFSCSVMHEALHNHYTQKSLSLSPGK
light: B1 light
notes: structure 1; CD3 Fab from PR001848, CLDN18.2 VH from PR007246; LALA
Turning to B3, the figures for the concentration for a half-maximal effect (EC50) in [14] and in [1] were 40.6 nM and 31.3 nM, respectively. Moreover, in test [2], the “TDCC, Titer EC50 (pM), NUGC4_D8” value is 48.5 pM. Besides, the binding result in [6], in [7] and in test [8] was “no binding (tested: 10000-625 nM)” throughout. The Kd in [9] was found to be 53.9 nM; in [10], 3000 nM; in [11], 210 nM. For the same molecule, the dissociation rate constant (koff) was found to be 0.0471 s⁻¹ in test [9] and 0.0626 s⁻¹ in [11]. Moreover, the kon in test [9] stood at 874000 M⁻¹ s⁻¹; in [11], 298000 M⁻¹ s⁻¹.

B4: PR006293 (bispecific antibody, human IgG1, lambda)
chain: B1 chain with T54D, G55A, T190D, G191A, G281A
heavy: EVQLLESGGGLVQPGGSLRLSCAASGFTFSTYAMNWVRQAPGKGLEWVSRIRSKYNNYATYYADSVKDRFTISRDDSKSTLYLQMNSLRAEDTAVYYCVRHGNFGNSYVSWFAYWGQGTLVTVSSASTKGPSVFPLAPSSKSTSGGTAALGCLVKDYFPEPVTVSWNSGALTSGVHTFPAVLQSSGLYSLSSVVTVPSSSLGTQTYICNVNHKPSNTKVDKKVEPKSCDKTHTCPPCPAPEAAGAPSVFLFPPKPKDTLMISRTPEVTCVVVDVSHEDPEVKFNWYVDGVEVHNAKTKPREEQYNSTYRVVSVLTVLHQDWLNGKEYKCKVSNKALPAPIEKTISKAKGQPREPQVYTLPPCREEMTKNQVSLWCLVKGFYPSDIAVEWESNGQPENNYKTTPPVLDSDGSFFLYSKLTVDKSRWQQGNVFSCSVMHEALHNHYTQKSLSLSPGK
light: B1 light
notes: structure 1; CD3 Fab from PR001848, CLDN18.2 VH from PR007245; AAA
On to B4, for which the values for the EC50 in [14] and in [1] were 65 nM and 78 nM, respectively. The “TDCC, Titer EC50 (pM), IM95” value in test [2] worked out at 460 pM. In addition, the “TDCC, Titer EC50 (pM), NUGC4_D8” value in test [2] was 87 pM. In addition, the “TDCC, Titer EC50 (pM), SNU620” value in test [3] was 18.5 pM. In addition, the binding result is given as “no binding (tested: 800-50 nM)” in test [15]; “no binding (tested: 6000-375 nM)” in test [16]; “no binding (tested: 10000-625 nM)” in [6]; “no binding (tested: 10000-625 nM)” in [7]; “no binding (tested: 10000-625 nM)” in [8]. In addition, the Kd is 31.7 nM in test [17], 32.4 nM in test [18] and 217 nM in [11]. Further, the off-rate (koff) in test [17] came out at 0.00216 s⁻¹; in test [18], 0.00197 s⁻¹; in [11], 0.0632 s⁻¹. Also, the kon in [17] was 68100 M⁻¹ s⁻¹; in test [18], 60700 M⁻¹ s⁻¹; in [11], 291000 M⁻¹ s⁻¹. Further, the IC50 in test [12] came to 132 nM; in test [13] it was 100 nM. The “Maximum inhibition rate (%)” value turned out to be 97.8% in [12] and 48% in [13].
